Data on 1 variant can be found in publication PMC13061415 (2026).

First the molecules themselves.
B1: muskelin CTLH-CRA domain (205–735 Δ248–625) [rat] / Twa1 CTLH-CRA domain (58-190), wild type [mouse] (parent complex)
chain 1: EHPMLTDMHDKLVLKGDFDACEELIEKAVNDGLFNQYISQQEYPSKDYLLRHCKYLIRKHRFEEKAQMDPLSALKYLQNDLYITVDHSDPEETKEFQLLASALFKSGSDFTALGFSDVDHTYAQRTQLFDTLVNFFPDSMTPPKGNLVDLITL
chain 2: SVDLETLDERIKIREMILKGQIQEAIALINSLHPELLDTNRYLYFHLQQQHLIELIRQRETEAALEFAQTQLAEQGEESRECLTEMERTLALLAFDSPEESPFGDLLHMMQRQKVWSEVNQAVLDYENRESTP

This assay covers variants of B1. Nature of the assay: ITC; 160 µM muskelin + 16 µM Twa1 mutants; read off a plot.
For chain 2 A68G, chain 2 Q69R, chain 2 A73Q, chain 2 L83K, chain 2 E87K, chain 2 L90F, chain 2 F95Y, chain 2 F103V, the dG was around -8.8 kcal/mol.
